Assay results published in the supplement of paper PMC9112550, “Optimization of the antimicrobial peptide Bac7 by deep mutational scanning” (BMC Biology, 2022).

System: Escherichia coli TOP10
Assay: shrunken log2 fold change of peptide-encoding DNA abundance (4.5 h post-induction vs induction); higher = less antimicrobial activity (less host growth inhibition)
Conditions: time post-induction: 4.5 h; library: site-saturation at positions 5, 18, 19, 20
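Note: peptides expressed intracellularly from a pBAD plasmid library in pooled LB shake-flask culture, induced with 0.3% L-arabinose, DNA abundance read by NGS, three biological replicates, DESeq2 with apeglm shrinkage.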

| Sequence | shrunken log2 fold change |
| --- | --- |
| RRIRFRPPRLPRPRPRPYNGPRP | -1.47 |
| RRIRFRPPRLPRPRPRPYNHPRP | -1.2 |
| RRIRFRPPRLPRPRPRPYNMPRP | -0.725 |
| RRIRFRPPRLPRPRPRPYNQPRP | -0.881 |
| RRIRFRPPRLPRPRPRPYPIPRP | -0.281 |
| RRIRFRPPRLPRPRPRPYQMPRP | -0.0843 |
| RRIRFRPPRLPRPRPRPYRLPRP | 0.0227 |
| RRIRFRPPRLPRPRPRPYTIPRP | 0.0439 |
| RRIRFRPPRLPRPRPRPYVRPRP | -0.0985 |
| RRIRFRPPRLPRPRPRPYVVPRP | -0.252 |
| RRIRFRPPRLPRPRPRPYWEPRP | -0.391 |
| RRIRGRPPRLPRPRPRPACEPRP | 0.833 |
| RRIRGRPPRLPRPRPRPACHPRP | 0.889 |
| RRIRGRPPRLPRPRPRPACNPRP | 0.415 |
| RRIRGRPPRLPRPRPRPACRPRP | 0.549 |
| RRIRGRPPRLPRPRPRPAEKPRP | 0.261 |
| RRIRGRPPRLPRPRPRPAEPPRP | 0.176 |
| RRIRGRPPRLPRPRPRPAFDPRP | 0.763 |
| RRIRGRPPRLPRPRPRPAFHPRP | 0.209 |
| RRIRGRPPRLPRPRPRPAFNPRP | 0.2 |
| RRIRGRPPRLPRPRPRPAGNPRP | 0.693 |
| RRIRGRPPRLPRPRPRPAGWPRP | 1.15 |
| RRIRGRPPRLPRPRPRPAGYPRP | 0.164 |
| RRIRGRPPRLPRPRPRPAHAPRP | 1.06 |
| RRIRGRPPRLPRPRPRPAHWPRP | 0.378 |

| Sequence | shrunken log2 fold change |
| --- | --- |
| RRIRGRPPRLPRPRPRPAIDPRP | 0.568 |
| RRIRGRPPRLPRPRPRPAISPRP | 0.296 |
| RRIRGRPPRLPRPRPRPAIYPRP | 0.302 |
| RRIRGRPPRLPRPRPRPAKKPRP | 0.00559 |
| RRIRGRPPRLPRPRPRPALQPRP | 0.333 |
| RRIRGRPPRLPRPRPRPALWPRP | 0.985 |
| RRIRGRPPRLPRPRPRPAMCPRP | 0.465 |
| RRIRGRPPRLPRPRPRPAMYPRP | 0.369 |
| RRIRGRPPRLPRPRPRPAPTPRP | 1.2 |
| RRIRGRPPRLPRPRPRPAQIPRP | 0.592 |
| RRIRGRPPRLPRPRPRPARNPRP | 0.51 |
| RRIRGRPPRLPRPRPRPARQPRP | 0.654 |
| RRIRGRPPRLPRPRPRPASRPRP | 0.705 |
| RRIRGRPPRLPRPRPRPAVTPRP | 0.688 |
| RRIRGRPPRLPRPRPRPAWAPRP | 0.854 |
| RRIRGRPPRLPRPRPRPAYHPRP | -0.141 |
| RRIRGRPPRLPRPRPRPCDEPRP | 0.566 |
| RRIRGRPPRLPRPRPRPCDHPRP | 0.135 |
| RRIRGRPPRLPRPRPRPCELPRP | -0.02 |
| RRIRGRPPRLPRPRPRPCFLPRP | 0.0171 |
| RRIRGRPPRLPRPRPRPCFQPRP | 0.106 |
| RRIRGRPPRLPRPRPRPCGKPRP | 0.0957 |
| RRIRGRPPRLPRPRPRPCHFPRP | 0.0576 |
| RRIRGRPPRLPRPRPRPCIFPRP | 0.426 |
| RRIRGRPPRLPRPRPRPCIYPRP | 0.0369 |

| Sequence | shrunken log2 fold change |
| --- | --- |
| RRIRGRPPRLPRPRPRPCKWPRP | -0.075 |
| RRIRGRPPRLPRPRPRPCNGPRP | -0.199 |
| RRIRGRPPRLPRPRPRPCQLPRP | -0.327 |
| RRIRGRPPRLPRPRPRPCQTPRP | 0.0774 |
| RRIRGRPPRLPRPRPRPCRHPRP | 0.0672 |
| RRIRGRPPRLPRPRPRPCRQPRP | 0.436 |
| RRIRGRPPRLPRPRPRPCVDPRP | 1.17 |
| RRIRGRPPRLPRPRPRPCWCPRP | 0.171 |
| RRIRGRPPRLPRPRPRPCWVPRP | -0.00887 |
| RRIRGRPPRLPRPRPRPCWWPRP | 0.554 |
| RRIRGRPPRLPRPRPRPDAYPRP | 0.829 |
| RRIRGRPPRLPRPRPRPDCIPRP | 0.799 |
| RRIRGRPPRLPRPRPRPDDAPRP | 0.314 |
| RRIRGRPPRLPRPRPRPDEFPRP | 0.561 |
| RRIRGRPPRLPRPRPRPDFNPRP | 0.325 |
| RRIRGRPPRLPRPRPRPDFYPRP | 0.232 |
| RRIRGRPPRLPRPRPRPDHDPRP | 0.301 |
| RRIRGRPPRLPRPRPRPDHKPRP | -0.154 |
| RRIRGRPPRLPRPRPRPDHSPRP | -0.0179 |
| RRIRGRPPRLPRPRPRPDHVPRP | 0.0598 |
| RRIRGRPPRLPRPRPRPDKIPRP | 0.813 |
| RRIRGRPPRLPRPRPRPDKNPRP | 0.32 |
| RRIRGRPPRLPRPRPRPDLSPRP | 0.121 |
| RRIRGRPPRLPRPRPRPDLYPRP | 0.574 |
| RRIRGRPPRLPRPRPRPDMFPRP | 1.92 |

| Sequence | shrunken log2 fold change |
| --- | --- |
| RRIRGRPPRLPRPRPRPDMKPRP | 0.00543 |
| RRIRGRPPRLPRPRPRPDNEPRP | 1.84 |
| RRIRGRPPRLPRPRPRPDNKPRP | -0.169 |
| RRIRGRPPRLPRPRPRPDNSPRP | 0.0661 |
| RRIRGRPPRLPRPRPRPDQAPRP | 0.925 |
| RRIRGRPPRLPRPRPRPDQMPRP | 0.633 |
| RRIRGRPPRLPRPRPRPDQSPRP | 0.777 |
| RRIRGRPPRLPRPRPRPDQTPRP | 0.0112 |
| RRIRGRPPRLPRPRPRPDRIPRP | 0.286 |
| RRIRGRPPRLPRPRPRPDRSPRP | 0.23 |
| RRIRGRPPRLPRPRPRPDSEPRP | 0.321 |
| RRIRGRPPRLPRPRPRPDSRPRP | 0.122 |
| RRIRGRPPRLPRPRPRPDTQPRP | 0.632 |
| RRIRGRPPRLPRPRPRPDVMPRP | 1.33 |
| RRIRGRPPRLPRPRPRPDVPPRP | 0.0136 |
| RRIRGRPPRLPRPRPRPDVSPRP | 0.163 |
| RRIRGRPPRLPRPRPRPDYCPRP | 0.0958 |
| RRIRGRPPRLPRPRPRPDYEPRP | 0.19 |
| RRIRGRPPRLPRPRPRPDYRPRP | 0.127 |
| RRIRGRPPRLPRPRPRPDYYPRP | -0.0926 |
| RRIRGRPPRLPRPRPRPEDDPRP | 2.81 |
| RRIRGRPPRLPRPRPRPEDFPRP | 0.149 |
| RRIRGRPPRLPRPRPRPEDMPRP | 1.02 |
| RRIRGRPPRLPRPRPRPEDVPRP | 0.157 |
| RRIRGRPPRLPRPRPRPEEWPRP | 1.7 |

| Sequence | shrunken log2 fold change |
| --- | --- |
| RRIRGRPPRLPRPRPRPEFMPRP | 0.887 |
| RRIRGRPPRLPRPRPRPEGLPRP | 1.06 |
| RRIRGRPPRLPRPRPRPEHEPRP | 0.176 |
| RRIRGRPPRLPRPRPRPEHGPRP | 0.602 |
| RRIRGRPPRLPRPRPRPEHSPRP | 0.114 |
| RRIRGRPPRLPRPRPRPEITPRP | 0.542 |
| RRIRGRPPRLPRPRPRPELQPRP | 2.19 |
| RRIRGRPPRLPRPRPRPEMSPRP | 0.25 |
| RRIRGRPPRLPRPRPRPENLPRP | -0.0405 |
| RRIRGRPPRLPRPRPRPENYPRP | -0.144 |
| RRIRGRPPRLPRPRPRPEPKPRP | 0.45 |
| RRIRGRPPRLPRPRPRPEQAPRP | 1.83 |
| RRIRGRPPRLPRPRPRPESNPRP | 2 |
| RRIRGRPPRLPRPRPRPEVQPRP | 1.71 |
| RRIRGRPPRLPRPRPRPEVRPRP | 0.919 |
| RRIRGRPPRLPRPRPRPEVSPRP | 0.372 |
| RRIRGRPPRLPRPRPRPFCWPRP | 0.551 |
| RRIRGRPPRLPRPRPRPFDMPRP | 0.255 |
| RRIRGRPPRLPRPRPRPFDVPRP | 0.147 |
| RRIRGRPPRLPRPRPRPFERPRP | -0.012 |
| RRIRGRPPRLPRPRPRPFEWPRP | -0.127 |
| RRIRGRPPRLPRPRPRPFGLPRP | -0.0119 |
| RRIRGRPPRLPRPRPRPFHAPRP | -0.13 |
| RRIRGRPPRLPRPRPRPFHIPRP | -0.14 |
| RRIRGRPPRLPRPRPRPFHQPRP | -0.199 |

| Sequence | shrunken log2 fold change |
| --- | --- |
| RRIRGRPPRLPRPRPRPFHSPRP | -0.155 |
| RRIRGRPPRLPRPRPRPFHYPRP | -0.383 |
| RRIRGRPPRLPRPRPRPFILPRP | -0.196 |
| RRIRGRPPRLPRPRPRPFIYPRP | 0.0217 |
| RRIRGRPPRLPRPRPRPFKTPRP | -0.341 |
| RRIRGRPPRLPRPRPRPFLAPRP | 0.525 |
| RRIRGRPPRLPRPRPRPFLEPRP | 0.625 |
| RRIRGRPPRLPRPRPRPFLGPRP | 0.0188 |
| RRIRGRPPRLPRPRPRPFNPPRP | -0.439 |
| RRIRGRPPRLPRPRPRPFRAPRP | 0.209 |
| RRIRGRPPRLPRPRPRPFRTPRP | -0.0333 |
| RRIRGRPPRLPRPRPRPFTRPRP | 0.0912 |
| RRIRGRPPRLPRPRPRPFVSPRP | -0.166 |
| RRIRGRPPRLPRPRPRPFWGPRP | 0.289 |
| RRIRGRPPRLPRPRPRPFYAPRP | 0.0161 |
| RRIRGRPPRLPRPRPRPFYCPRP | -0.0638 |
| RRIRGRPPRLPRPRPRPFYGPRP | -0.0443 |
| RRIRGRPPRLPRPRPRPFYNPRP | 0.0314 |
| RRIRGRPPRLPRPRPRPFYTPRP | -0.173 |
| RRIRGRPPRLPRPRPRPFYYPRP | 0.07 |
| RRIRGRPPRLPRPRPRPGALPRP | 0.723 |
| RRIRGRPPRLPRPRPRPGCSPRP | 0.867 |
| RRIRGRPPRLPRPRPRPGCYPRP | 0.345 |
| RRIRGRPPRLPRPRPRPGDEPRP | 1.81 |
| RRIRGRPPRLPRPRPRPGEPPRP | 0.276 |
